According to a protein production outcome set (Wang et al. 2014):

Experiment: label from the status in PepcDB records
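Also: failed if final PepcDB status was selected cloned or expressed and not failed if soluble or beyond.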

| Sequence | protein production |
| --- | --- |
| MNQVEMTEFPVGKPQEALYGVASTPDGALWFTLAKGNAIGRLSPDGAVSRFPLPHADGQPTTITCGPDGRPWFTLSSANAIGRLAPDGALRMFELPRPASRPFGIAGGHDGCLWFAEMAGDRIGRITIDGDIEEYDLPVKGGYPSCMAAGRDGLMWFTLNQAGAVGSISATAAPRIFPLGAADAAPVGIASDAQGALWIAQAGNGAIARFDAGGRITEFPLHSRAARPHAIAADAAGNLWFTEWGANRIGRISEAGDLAGYELAAPGSEPHGIAIDPHGCVWAALETGRLVRLQASPRDLEHHHHHH | failed |
| MNRARIIVAGIGPGGASDITPAVLSAIGRSDVVVGYKYYFRFIEPYLRPDTHCVDTGMKKERQRAEEAFGYALSGKTVCVISSGDAGIYGMAPLIYEMKRAKGVEMDIEVLPGISAFQKAASLLGAPIGHDLCLISLSDLMTPWPIIEKRIVAAASADFVTAIYNPKSEGRYWQLYRFVEIFMQYRSADTPVGLVRQAGREEEQVTVTTLGEFDPEVVDMFTVVLVGNSQSYCYEGHFITPRGYYPEEEIEAKGIGQEIMIKSFRTIEKELHRQDWPLDHKWALLHAIHTTADFDMENILYTDAGAVASLYEMIEAGRLRTIVTDVTMVTSGIRKGALERLGVEAKCYLHDPRVAELAARHGITRTQAGIRLAVEEHPDALFAFGNAPTALQELADLIRRGKASPAGIIAAPVGFVHVQESKHAVKPFRSIPKIIVEGRKGGSNLAATLVNAILCYNDAEQLRPGRDV | failed |
| MNRIEHYHDWLRDAHAMEKQAESMLESMASRIDNYPELRARIEQHLSETKNQIVQLETILDRNDISRSVIKDSMSKMAALGQSIGGIFPSDEIVKGSISGYVFEQFEIACYTSLLAAAKNAGDTASIPTIEAILNEEKHMADWLIQHIPQTTEKFLIRSETDGVEAKK | not failed |
| MNRIKAVGYENNELKEKAQLLADQLNLQLDQNADTCLFVTPEKLTLKIRNFSLMFADFSAMTWSKRRGEGKRQGLIRACKPTKGIKILDATAGWGKDAAILATFGADVVMLERHPVMAALLADALSRRNEADIQKMCLSLIASDAISFLHSLQEKDYPDIIYIDPMHPERNKSALVKKEMQVLQQLIGTDHDAMELIELSLSHVKSRVVVKWPQKVKPLLPPDASIDGKTVRFDIYMAQFSSN | failed |
| MNRNGLLIALALFAGIGLTFGLFPGLDLWLAGLFYDTAAKTFPMRSMPDLEFARDFAMWVAWAIAAPSIFALVYKMIRPDRPLVMPGRTVAFLLISITLSAGVLTNMTFKSHWGRPRPAAVTEFNGPWQFKAWWDNSGACPKNCSFFSGEGATAYWTFAPAALTPPAVRPYAYAAAFTFGTVTSGLRMAFGGHFFTDVAIAGLVTFLVIWLLYALIYRWAWSRTSDEAIDAALTRAFWPLYRLRLKKWRGQDIGPAPAA | failed |
| MNRNGQRRFLEFFAGGGMARLGLGADWACAFANDFDPVKAATYRANFADAGKHFQEGDVFALSAERLPDADLAWASSPCQDFSLAGARAGLAGGRSSAFFGFWSLMRSLSAEGRAPSVIVIENVVGLLTSHGGADFTALCQALHEEGYRFGALEIDAGAFVPQSRPRVFVVATRNPPGDLVGSSAFHTRAVREAAARLPADLQASWVWWGAPSPPARNTDLASMLEPDDRAVW | failed |
| MNRNLLLLLCSLFCFIAIGKPSDFPPVPNPPKLINDFAGMLSPAEVAELERKVNTFNDSTSIEISVVIITNLGDYDIAEYAFQLGALWGIGKDKKDNGVLLLISKENRKAFIATGYGMEGVLPDARCKRIIQAELIPQFKRSNYFNGINFTIDAIMRYSKNEYTADPVAANANRIKPAYVLLFIIGVIILVSFLNRNNNSGSNRGGNNGGYGSGGGGLLGGLLGGAIGSGYRGRSYGGGFGSGSSGGGFGGFGGGGFGGGGAGGDW | failed |
| MNRNRLPALTPGLAWSRPMNGAVDHKGYEQPTYDLEFAETATEIRRYGPYLVAEVTMAGDRSTAITRGFRVLARYIFGGNAESRRIEMTVPVSQLPAGEDLWTVRFTMPAVRSASLLPAPKDSRIRFVTVPPSRQAVRRFSGWPTDHALRRQAEGLAHWIAERGLPKREGPYFYFYDSPMTLPWQRRNEVAFGLGEGLEHHHHHH | not failed |
| MNRPHSATGDRPLALVDEHAHAWSPKTARARFRKGLTGPTAGVAAGHTQANLISVPADWAYDMLLFCTRNPQPCPVLDVTDAGSWTTVLADGADLRTDLPRYRVWRDGELVDEPSDVREHWRDDLVTFLIGCSFTFEWALAAAGVPIRHVEQGRNVPMYVTSRACRPAGRLRGPMVVSMRPVPPAHLSAAIHESSLLPAVHGSPVHCGDPSALGIDDLDRPDFGEAVYREPDDIPVFWACGVTPQAAVMASRPPFALTHAPGQMFLTDARDEQYRVALEHHHHHH | failed |
| MNRTARRDGTPEKPRRGSQGGSRGDYGKPKRSHAKPQSANSGRPIKQRKQRDSEMLISNARPARHQHVGRREAGDGSTEG | failed |
| MNRTLAYKLGAIALLILLLLIPLLMIDGLIRDRQEVRDGVLQDIARSSSYSQRLTGPLLVVPYRRTVREWVTEEKTEKRVLQEREQRGELYFLPDRFALDGQMRTELRYRGIYQARLYHVDNKVAGYFQVPAHYGIEEDLEDYQFETPFLAMGISDIRGIENALRLSLNGASVDFEPGSRVGLLGSGVHAPLQGVDGRQAQRLEYAFDLSLLGSERLDIVPVGRDSQVILKADWPHPSFGGEFLPSEREITAQGFTARWQTSFFATNMEEALRSCVEEQRCDGFQARAFGVGLVDPVDQYLKADRAIKYALLFITLTFAGFFLFEVLKRLAVHPVQYALVGLALAFFYLLLLSLAEHVGFELAYLVSAGACVGLIGFYLCFVLRSVARGLGFSVGLAGLYGLLYGLLSAEDYALLMGSLLLFAVLAAVMVLTRRLDWYGVGRKDFPAVPARA | failed |
| MNRVDLSIFIPDSLTAETGDLKIKTYKVVLIARAASIFGVKRIVIYHDDADGEARFIRDILTYMDTPQYLRRKVFPIMRELKHVGILPPLRTPHHPTGKPVTGEYRQGLTVKRVKKGTLVDIGADKLALCREKLTVNRIMSFRVVRLGKEILIEPDEPEDRYWGYEVLDTRRNLAESLKTVGADVVVATSRNASPITSILDEVKTRMRGAREAAILFGGPYKGLPEIDADIWVNTLPGQCTETVRTEEAVLATLSVFNMLTQIDEKDE | not failed |
| MNRYQALFQRLSAAQQGAFVPFVTIGDPNPEQSLAIMQTLIDAGADALELGMPFSDPLADGPTIQGANLRALAAKTTPDICFELIAQIRARNPETPIGLLMYANLVYARGIDDFYQRCQKAGVDSVLIADVPTNESQPFVAAAEKFGIQPIFIAPPTASDETLRAVAQLGKGYTYLLSRAGVTGAETKANMPVHALLERLQQFDAPPALLGFGISEPAQVKQAIEAGAAGAISGSAVVKIIETHLDNPAKQLTELANFTQAMKKATKI | not failed |
| MNSDPTRERILHGLITLYILKELVKRPMHGYELQKSMFETTGQALPQGSIYILLKTMKERGFVISESSVNEKGQQLTVYHITDAGKKFLCDHSQALQLARKIIDDLLSTVDIIENRN | not failed |
| MNSELTFKQGLKDTMPTVFGYIGIGIAFGMIGHSEGFSVWVILLLSLIVYAGSAQFIMVSMLATHSPIMSIVLSVFLVNSRIILMSMTTASYFKNESLLKNILLGTLLTDESFALGMNKQNYTEGKLNFSWFNASNLLAYLVWALASAIGALLGNLLANPEKLGLGFAVIAMFIGLLYLQLISDKTLGLMLQLVMVGITLVLFYFGLIFLPSNLLVLFVTLIACALGVGVKRVFF | failed |
| MNSESKLSQKANSSFTMDDFAKALENHDYQFQKGQVVYGKVFQLDPDGAYVDIGGKSSAYIPRDEASLRAVNDLAAVLPLHEELEFIIIREQDAEGQVTLSRRQLEINHIWEKLAQMKENSQPVDVKVTGVNKGGVTVDVQSLRGFIPRSHLTERDNLEALKGHTLTAGFLEVDRNNKKLVLSQRLVTRSSNFNQLEIGQLVEGKITGIKPFGVFVDLNGLSALLHIKQVSQKFIESLEKVFQPGQTIKAIVIDLDQGKGRVAISTRALENFPGEVLENFEEVMASAEARANRAANKMNEGGVGV | failed |
| MNSGRPETMENLPALYTIFQGEVAMVTDYGAFIKIPGCRKQGLVHRTHMSSCRVDKPSEIVDVGDKVWVKLIGREMKNDRIKVSLSMKVVNQGTGKDLDPNNVIIE | not failed |
| MNSIKNVPARVLSRRPGHSLEAEREQFDKTQAISISKAINTQEAPVKEKHARRIILGTHHEKGAFTFWSYAIGLPLPSSSILSWKFCHVLHKVLRDGHPNVLHDCQRYRSNIREIGDLWGHLHDRYGQLVNVYTKLLLTKISFHLKHPQFPAGLEVTDEVLEKAAGTDVNNIFQLTVEMFDYMDCELKLSESVFRQLNTAIAVSQMSSGQCRLAPLIQVIQDCSHLYHYTVKLLFKLHSCLPADTLQGHRDRFHEQFHSLRNFFRRASDMLYFKRLIQIPRLPEGPPNFLRASALAEHIKPVVVIPEEAPEDEEPENLIEISTGPPAGEPVVVADLFDQTFGPPNGSVKDDRDLQIESLKREVEMLRSELEKIKLEAQRYIAQLKSQVNALEGELEEQRKQKQKALVDNEQLRHELAQLRAAQLEGERSQGLREEAERKASATEARYNKLKEKHSELVHVHAELLRKNADTAKQLTVTQQSQEEVARVKEQLAFQVEQVKRESELKLEEKSDQLEKLKRELEAKAGELARAQEALSHTEQSKSELSSRLDTLSAEKDALSGAVRQREADLLAAQSLVRETEAALSREQQRSSQEQGELQGRLAERESQEQGLRQRLLDEQFAVLRGAAAEAAGILQDAVSKLDDPLHLRCTSSPDYLVSRAQEALDAVSTLEEGHAQYLTSLADASALVAALTRFSHLAADTIINGGATSHLAPTDPADRLIDTCRECGARALELMGQLQDQQALRHMQASLVRTPLQGILQLGQELKPKSLDVRQEELGAVVDKEMAATSAAIEDAVRRIEDMMNQARHASSGVKLEVNERILNSCTDLMKAIRLLVTTSTSLQKEIVESGRGAATQQEFYAKNSRWTEGLISASKAVGWGATQLVEAADKVVLHTGKYEELIVCSHEIAASTAQLVAASKVKANKHSPHLSRLQECSRTVNERAANVVASTKSGQEQIEDRDTMDFSGLSLIKLKKQEMETQVRVLELEKTLEAERMRLGELRKQHYVLAGASGSPGEEVAIRPSTAPRSVTTKKPPLAQKPSVAPRQDHQLDKKDGIYPAQLVNY | not failed |
| MNSIWKQYIDILQGVVKPALGCTEPICAAYAASVATQMLGSKPETIDVFVSDNLYKNSMGVFVPRTGRVGLAIAAATGAIGGNPDAGLEVLAKITEEEVDEAQKLIDNGCVVVQRETTDEFIYCRVIAKNAVHNAEVTISGGHTLIIEKRLDDNVIFTLDSSLPKTSTASICDGVDITISSIYDFATQAEFDDIKFILEAKELNIALAQEGLNNPYGLEVGRTYQKNIEKGLLAKSLDSDILIYTSAASDARMGGATLPAMSNYGSGNQGIAATIPVVKMADFFNADDEKLARAFIMSHLGAIYIKSHYPPLSAFCGNAVTSAAASMAMVYLAGGTFEQSCSAIQNTISDTSGMICDGAKSTCAMKVGSSAQSAMKSALLALNDHCVTKQGVIADDVEKTIKNIGRMITTGMPNIDHEIIEIMAS | failed |
| MNSKIMYHIFPDRFHRYGEDRPGLIKWGEKPSRDSFFGGNLEGIRQKIQYIKDLRVDHIYLNPLFKSKSNHRYDVDDYYSIDELLGTDQDLKNLVSDAHASGIKIVLDMVFNHTSTDFPAFRDVIEKGRNSPYYRWYIFHRDEFTVFRGRGKRGSYPSYETFMGYGGMPKLDHRNPEVRRYCINVLKYYVQKFDVDGFRYDVAHSIYSKFFEEVFSEIGTGILHIGEAWCLPTYLVNGSAWQSYTNYFLGGSIIDFLKGSITLGEFYDRVQRMLIVNGIEKQQAMMNVLDSHDTPRILRILNGDRKKVKLAYSILYLFDGIATIYYGDEVGLDGGKDPDDRRCFPWDSMDEDMHSFFMNLGDLREKYSLGSALEHHHHHH | failed |
